In assay [1] the target is T1, Latrophilin-3 ADHD-related variant D615N (Lphn3^D615N) (human).
T1 chain: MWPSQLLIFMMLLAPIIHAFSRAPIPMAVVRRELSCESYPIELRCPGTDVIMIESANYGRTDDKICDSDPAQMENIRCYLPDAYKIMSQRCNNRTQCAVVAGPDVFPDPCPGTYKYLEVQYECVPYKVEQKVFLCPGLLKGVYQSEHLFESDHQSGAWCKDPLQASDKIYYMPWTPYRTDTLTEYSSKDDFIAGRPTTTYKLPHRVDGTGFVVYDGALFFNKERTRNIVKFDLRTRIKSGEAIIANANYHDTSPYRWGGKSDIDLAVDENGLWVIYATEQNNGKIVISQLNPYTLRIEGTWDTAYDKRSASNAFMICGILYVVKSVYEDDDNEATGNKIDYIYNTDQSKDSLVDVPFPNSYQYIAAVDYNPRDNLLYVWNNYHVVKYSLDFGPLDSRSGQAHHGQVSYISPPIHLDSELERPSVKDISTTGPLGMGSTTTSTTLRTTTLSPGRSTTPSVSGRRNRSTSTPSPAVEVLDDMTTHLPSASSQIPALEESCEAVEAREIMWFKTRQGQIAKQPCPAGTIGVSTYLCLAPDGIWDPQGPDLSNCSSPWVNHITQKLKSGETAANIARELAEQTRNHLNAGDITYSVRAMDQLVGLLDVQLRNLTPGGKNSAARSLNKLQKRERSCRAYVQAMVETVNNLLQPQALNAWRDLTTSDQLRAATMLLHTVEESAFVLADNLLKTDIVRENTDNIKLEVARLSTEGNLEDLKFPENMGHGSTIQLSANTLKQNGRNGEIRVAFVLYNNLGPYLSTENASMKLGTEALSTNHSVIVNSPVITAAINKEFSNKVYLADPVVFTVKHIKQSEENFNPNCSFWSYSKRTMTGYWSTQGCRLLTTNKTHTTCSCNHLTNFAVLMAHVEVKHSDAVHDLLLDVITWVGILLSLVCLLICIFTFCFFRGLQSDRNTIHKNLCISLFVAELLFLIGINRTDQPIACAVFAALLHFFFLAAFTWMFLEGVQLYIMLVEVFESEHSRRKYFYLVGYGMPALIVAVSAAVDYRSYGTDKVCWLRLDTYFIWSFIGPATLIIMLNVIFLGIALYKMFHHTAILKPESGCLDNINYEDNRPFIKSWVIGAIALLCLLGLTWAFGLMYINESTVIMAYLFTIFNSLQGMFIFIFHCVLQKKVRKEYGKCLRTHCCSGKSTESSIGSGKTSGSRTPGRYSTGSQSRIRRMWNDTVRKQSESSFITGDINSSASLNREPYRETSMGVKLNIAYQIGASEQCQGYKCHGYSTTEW

The target of assay [2] is T2, Latrophilin-3 ADHD-related variant A247S (Lphn3^A247S) (human).
T2 chain: T1 chain with A247S, N615D

Positions count from the first letter of the chain named.

Our source for the Kd values is paper PMC9135631 (2022).

B1: soluble FLRT3 extracellular domain fused to the constant fraction of human IgG (FLRT3^ECD-Fc) (Fc fusion)
chain: KSCPSVCRCDAGFIYCNDRFLTSIPTGIPEDATTLYLQNNQINNAGIPSDLKNLLKVERIYLYHNSLDEFPTNLPKYVKELHLQENNIRTITYDSLSKIPYLEELHLDDNSVSAVSIEEGAFRDSNYLRLLFLSRNHLSTIPWGLPRTIEELRLDDNRISTISSPSLQGLTSLKRLVLDGNLLNNHGLGDKVFFNLVNLTELSLVRNSLTAAPVNLPGTNLRKLYLQDNHINRVPPNAFSYLRQLYRLDMSNNNLSNLPQGIFDDLDNITQLILRNNPWYCGCKMKWVRDWLQSLPVKVNVRGLMCQAPEKVRGMAIKDLNAELFDCKDSGIVSTIQITTAIPNTVYPAQGQWPAPVTKQPDIKNPKLTKDHQTTGSPSRKTITITVKSVTSDTIHISWKLALPMTALRLSWLKLGHSPAFGSITETIVTGERSEYLVTALEPDSPYKVCMVPMETSNLYLFDETPVCIETETAPLRMYNPTTTLNREQEKEPYKNPNLP
modifications: HA/Flag epitopes left out; isoform assumed; signal peptide removed and GPS autoproteolysis expected
As to B1, the Kd in assay [1] is 1.25 nM; in assay [2], 1.22 nM.

In general, Kd refers to the free concentration of one partner at which half of the binding sites on the other are occupied at equilibrium, for simple one-to-one binding.
